Source: patent publication US7063946B2, “Methods, reagents, kits and apparatus for protein function analysis” (Meso Scale Technologies, LLC., priority 2001, dated 2006)
Where “and” joins values, the source holds several entries; their conditions need not be identical. Equal values may be shown once.

Legend:
[1] = target: T1, Myc peptide (SEQ ID NO: 4) (Homo sapiens, UniProt P01106); experiment: 96-well screen for phosphopeptide binding proteins, 7-spot IPR plates; conditions: two steps of normalization; top 9 clones
T1 construct: phosphothreonine (T58) and phosphoserine (S62) (chemical modification); purchased New England Peptide, Fitchburg Mass; host or cells: chemical synthesis
Experimental: (§1) A screen was conducted using 7-spot IPR plates. The 7 spot NPT IPR plates are described in more detail in copending Provisional Application No. 60/301,932 (entitled “Assay Plates, Reader Systems and Methods for Luminescence Test Measurements”, filed on Jun. 29, 2001, hereby incorporated by reference) and particularly in the description of Plate Type D in Example 6.1 (NPT IPR plate) and U.S. application Ser. Nos. 10/185,274 and 10/185,363, filed Jun. 28, 2002, each hereby incorporated by reference. These plates consist of a 96 wells with 7 zones (spots) for the immobilization of proteins or other reagents. Each spot was coated with BSA conjugated to either a single phosphopeptide or multiple phosphopeptides.
(§2) The plates were prepared essentially as described in example 12. The seven spots supported, respectively, the following BSA conjugates IkB, pY992, pY1068, pY1148, Myc, “A”, and “6-P”. “A” refers to a conjugate of BSA with multiple peptides: IkB, pY1148, Myc which were then coupled to BSA. “6-P” refers to a conjugate of BSA with the following multiple peptides: IkB, pY1148, pY992, pY1068, Smad3C.
(§3) For the assay, 4 ul from TnT reaction product described above were added to the coated plate containing 50 μl of binding buffer supplemented with 50 ng/well Ru-Streptavidin. The binding reaction was allowed to proceed at room temperature for 1 hour with constant shaking. […] The ECL signals were measured using an imaging plate reader (IPR). The raw data from the IPR reader was then normalized using two steps of normalization. The first round was based on the 50 lowest values for a given specific spot. These 50 lowest values were averaged and divided into each signal for that spot to generate a signal value which could be compared readily between the peptide-conjugate spots. This was then followed by a second round of normalization using the lowest normalized value for a spot within a well to divide the signals from the other spots. This method provides a means to reduce the signals from proteins which bound non specifically to all the spots within a well. […]

[2] = target: T2, IkB peptide (SEQ ID NO: 1) (Homo sapiens, UniProt P25963); experiment: as above; conditions: two steps of normalization, top 9 clones
T2 construct: two phosphoserines in the DSGLDS motif (chemical modification); purchased New England Peptide, Fitchburg Mass; host or cells: chemical synthesis
Experimental: as §1, §2, §3

Fert2 = target: T3, Fert2 (Mus musculus, UniProt P70451); experiment: Kinase inhibitor profiling, pEY phosphorylation; type: biochemical
T3 construct: specificity data for proteins generated from a library of eighteen full-length clones; host or cells: rabbit reticulocyte lysate, TnT coupled transcription/translation
T3 sequence (P70451 whole entry): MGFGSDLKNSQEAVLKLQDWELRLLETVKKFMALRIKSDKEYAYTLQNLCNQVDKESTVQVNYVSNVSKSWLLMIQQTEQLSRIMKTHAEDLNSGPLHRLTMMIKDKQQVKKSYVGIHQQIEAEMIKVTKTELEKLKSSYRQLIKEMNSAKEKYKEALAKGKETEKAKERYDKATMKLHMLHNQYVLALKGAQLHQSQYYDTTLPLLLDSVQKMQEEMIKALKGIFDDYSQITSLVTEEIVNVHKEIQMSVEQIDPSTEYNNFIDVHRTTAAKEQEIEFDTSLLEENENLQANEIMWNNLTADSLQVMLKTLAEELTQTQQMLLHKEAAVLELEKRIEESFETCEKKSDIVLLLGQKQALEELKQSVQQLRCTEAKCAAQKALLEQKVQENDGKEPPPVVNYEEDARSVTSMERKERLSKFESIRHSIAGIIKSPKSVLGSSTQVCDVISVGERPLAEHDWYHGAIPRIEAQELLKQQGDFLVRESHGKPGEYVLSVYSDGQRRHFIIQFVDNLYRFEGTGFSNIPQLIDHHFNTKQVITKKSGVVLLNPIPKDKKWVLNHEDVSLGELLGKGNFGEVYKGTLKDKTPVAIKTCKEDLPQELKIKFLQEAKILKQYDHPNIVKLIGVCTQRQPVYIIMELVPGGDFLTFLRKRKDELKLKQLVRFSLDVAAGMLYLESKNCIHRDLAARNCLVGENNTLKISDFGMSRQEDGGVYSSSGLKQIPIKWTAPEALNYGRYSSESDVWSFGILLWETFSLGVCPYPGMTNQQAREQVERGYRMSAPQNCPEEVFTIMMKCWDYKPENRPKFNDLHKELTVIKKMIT

T1 sequence (P01106 with tags, fused parts or gaps limits assumed): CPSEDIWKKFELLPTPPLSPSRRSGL
T2 sequence (P25963 with tags, fused parts or gaps limits assumed): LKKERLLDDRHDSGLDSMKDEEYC

Row | Compound | normalized ECL signal, Myc spot [1] | normalized ECL signal, IkBa spot [2] | normalized ECL signal, IkBa spot ([2]; βTRCP positive control) | Inhibition specificity towards pEY phosphorylation at 10X IC50, Fert2 (Fert2)
1 | 3491843: IMAGE clone protein: βTRCP1 [compound 3491843] | 4 and 8 | 12 | 23 | 
2 | COc1c(C=O)c(O)cc2c1C(=O)c1ccccc1C2=O [Damnacanthal] |  |  |  | L (low inhibition (“L”=between 50–75% of the activity remaining))
